Measurements from paper PMC10382551, “Affinity-matured homotypic interactions induce spectrum of PfCSP structures that influence protection from malaria infection” (Nature Communications, 2023).
Ends that are not written are not given here.

T1: NPNA4 peptide, biotinylated at the C-terminus (BLI) (Plasmodium falciparum (isolate 3D7).)
T1 construct: source: synthetic peptide (InnoPep Inc)
T1 chain: NPNANPNANPNANPNA-biotin

T2: NPNA8 peptide (used for cryo-EM with Fab 227) (Plasmodium falciparum, not fully specified)
T2 construct: source: synthetic peptide (InnoPep Inc)
T2 chain: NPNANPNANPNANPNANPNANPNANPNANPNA

T3: NPNA4 peptide (Plasmodium falciparum (isolate 3D7)., not fully specified)
T3 construct: source: synthetic peptide (InnoPep Inc, purity >=97%)
T3 chain: NPNANPNANPNANPNA

T4: NPNA8 peptide (Plasmodium falciparum (isolate 3D7)., not fully specified)
T4 construct: source: synthetic peptide (InnoPep Inc, purity >=97%)
T4 chain: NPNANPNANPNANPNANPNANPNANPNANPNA


Columns and labels:
Conditions in all cases: both partners purified
[1] = molecular target: T1, NPNA4 peptide, biotinylated at the …; experiment: BLI
[2] = molecular target: T2, NPNA8 peptide (used for cryo-EM with …); experiment: cryo-EM structure; saturating amounts of Fab incubated with rsCSP (or NPNA8 for Fab 227) overnight at 4 °C, complex purified by SEC (Superose 6 Increase, TBS), single particle cryo-EM
[3] = molecular target: T2, NPNA8 peptide (used for cryo-EM with …); experiment: as above
NPNA4 peptide = molecular target: T3, NPNA4 peptide; experiment: BLI
NPNA8 peptide = molecular target: T4, NPNA8 peptide; experiment: BLI

| Binder | Kd (NPNA4 peptide) [µM] | Kd (NPNA8 peptide) [µM] | further results |
| --- | --- | --- | --- |
| Fab 356R, germline-reverted mutant of 356 (Fab, V domains shown, source: ExpiCHO cells, purified (mAb Select PrismA or Capture Select, SEC)) VH: QVQLVESGGGVVQPGRSLRLSCAASGFTFSSYGMHWVRQTPGKGLEWVAVIWHDGSNKFYADSVKGRFTISRDNSKNMIYLQMNSLRVEDTAIYYCARDSLFYDHDNSGYYGYWGQGTLVTVSS VL: EIVMTQSPATVSVSPGERATLSCRASQSVTSKLAWYQQKPGQAPRLLIYGASTRATGIPARFSGSGSGTEFTLTISSLQSEDFAVYFCQQYNNGFTFGPGTKVDFK | – | – | fold change of apparent affinity against 356 [1]: ~2 fold |
| Fab 239R, germline-reverted mutant of 239 (Fab, V domains shown, source: ExpiCHO cells, purified (mAb Select PrismA or Capture Select, SEC)) VH: QVQLVESGGGVVQPGRSLRLSCAASRLTFSSYGMHWVRQTPGKGLEWVAVIWHDGSNKFYADSVKGRFTISRDNSKNTLYLQMNSLRDEDTAIYYCAKDWGGASDRVFDYWGRGTLVIVSS VL: DIQMTQSPSTLSASVGDRVTITCRASQSVSTSLAWYQQKPGKAPNLLIYQASTLYTGVPSRFSGSGSGTEFTLTIGSLQPDDFATYYCQHYNSYSRITFGQGTRLEIK | – | – | fold change of apparent affinity against 239 [1]: ~2 fold |
| Fab of mAb 227 (Fab, V domains shown, also called 227 Fab; source: ExpiCHO cells, purified (mAb Select PrismA or Capture Select, SEC)) VH: QVQLVQSGGGVVQPGRSLRLSCVTSGFTFPAFGMHWVRQAPGKGLEWVAVIWYDGSKKYYADSVRGRFTISRDNSRNTLYLQMHSLRAEDTAVYYCARVKNYESSGYSQCLDYWGQGVLVTVAS VL: QSVLTQPPSVSGAPGQRVTISCTGSSSNIGAGYDVHWYQQLPGTAPKLLIYGNGNRPSGVPDRFSGSKSGTSVSLAITGLQAEDEADYYCQSYDSSLSAFVFGTGTKVTVL | – | – | stoichiometry N [2]: 8 Fabs bound; stoichiometry N [3]: 4 Fabs per NPNA8 disc |
| 311R Fab (Fab, V domains shown, also called Fab311R; germline-reverted 311; source: ExpiCHO cells, purified (mAb Select PrismA or Capture Select, SEC)) VH: QVQLVESGGGVVPPGRSLRLSCATSGFTFSSYGMHWVRQAPGKGLEWVAIIWYDGSNKFYAASVKGRFTISRDNSKNTLYLQMNSLRVEDTAVYYCARAAYYDTSGYGDYWGQGTLVTVSS VL: QSVLTQPPSVSGAPGQTVTISCTGGSSNIGAGYDVHWYQQLPGTAPKLLIYGNINRPSGVPDRFSGSKSGTSASLAITGLQAEDEADYYCQSYDSSLSGSWVFGGGTKLTVL | 0.131 | 0.401 | – |
| 239R Fab (Fab, V domains shown, also called Fab239R; 239 FabR; source: ExpiCHO cells, purified (mAb Select PrismA or Capture Select, SEC)) VH: QVQLVESGGGVVQPGRSLRLSCAASRLTFSSYGMHWVRQTPGKGLEWVAVIWHDGSNKFYADSVKGRFTISRDNSKNTLYLQMNSLRDEDTAIYYCAKDWGGASDRVFDYWGRGTLVIVSS VL: DIQMTQSPSTLSASVGDRVTITCRASQSVSTSLAWYQQKPGKAPNLLIYQASTLYTGVPSRFSGSGSGTEFTLTIGSLQPDDFATYYCQHYNSYSRITFGQGTRLEIK | 0.165 | 0.205 | – |
